Experimental findings from the supplement of paper PMC12042874 are described below.

± gives the uncertainty stated by the source.

The data set can be described thus: amyloid nucleation score (Sup35N fusion, yeast selection) (log enrichment); library NNK2; higher = more nucleation; inactive = no reads after selection. The method, boiled down:
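The nucleation score is the DiMSum log enrichment of output over input reads, centred on the mode score of non-aggregating sequences. Only sequences with 100 or more input reads were scored, using Illumina sequencing of input and output plasmid inserts. Psi-negative yeast expressing Sup35N fused to peptides of 20 random codons were induced 24 hours with 100 μM copper sulfate and grown 7 days at 30°C on medium lacking adenine and uracil.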
On to LVNKG, for which the amyloid nucleation score was determined as 3.15 ± 0.064. With LVPSY, the amyloid nucleation score came to 0.457 ± 0.18. As for LVRSVFIRYCISIPCRTRVL, the amyloid nucleation score came to 0.034 ± 1.1.

In turn, LVSESTLINSFLQIWFWSTL gave an amyloid nucleation score of -0.324 ± 1.1. For LVSRCDDACGIQTGNMV, the amyloid nucleation score came out at 0.043 ± 0.33. Regarding LVSTEIN, the amyloid nucleation score amounted to 3.75 ± 0.052. Consider LVTRTVWGLK, for which the amyloid nucleation score amounted to 0.223 ± 0.21. Substance LVVCEMY displayed an amyloid nucleation score of 0.348 ± 0.25. On to LVVCKHVV, for which the amyloid nucleation score is -0.323 ± 0.56. LVWCAISSNNKGLINVLADS yielded an amyloid nucleation score of -1.47 ± 0.5. Under LVWWLSNRV stands 2.41 ± 0.088; under LVYWRQYYCKGRVRLLC, “inactive”. LWAPAYCLIKC came in with an amyloid nucleation score of 0.851 ± 0.57.

Regarding LWGLYNREFNAWRGHFVQDG, the amyloid nucleation score result is “inactive”. Regarding LWGYCTMLSEGH, the amyloid nucleation score was -0.018 ± 0.2.

In the case of LWHHIHSDLMTIYFVLDSSG, the amyloid nucleation score entry is “inactive”. On to LWRIVSWVECIRCTNP, for which the amyloid nucleation score amounted to 0.182 ± 0.79. For LWSFKYFSVCYNLWTIMKGG, the amyloid nucleation score entry was “inactive”. Turning to LWSGFLSFVSNVPTFLYLS, the amyloid nucleation score was -2.01 ± 0.41.

In turn, LWTKFDSPSRVCHKSQLSKA registered an amyloid nucleation score of 0.192 ± 0.26. Regarding LYDFRDSYAYVCLTGYKYLG, the amyloid nucleation score was 1.02 ± 0.57. The substance LYDVRGEMSNVGWFM displayed an amyloid nucleation score of -0.052 ± 0.54. Substance LYEMVVM came in with an amyloid nucleation score of 0.05 ± 1.

Turning to LYERFIVENDCFQNHMKHEA, the amyloid nucleation score entry is “inactive”. As for LYEVLESVMIGI, the figure is -0.097 ± 0.6.

The substance LYGHGSILVRTNGGISFRRN displayed an amyloid nucleation score of -1.02 ± 1.1.

LYGRYANERWRLNSLDEKVT: the amyloid nucleation score is 0.881 ± 0.45. For LYIDLHDEALRTTKMDMLNG, the amyloid nucleation score entry was “inactive”. As for LYKSSIA, the figure is -2.08 ± 0.49; as for LYLGMDYWWDV, -0.164 ± 0.33; as for LYMCSSVLWVGLSLV, 0.851 ± 0.56. In the case of LYNRLACL, the amyloid nucleation score came to 1.86 ± 0.084.

Take LYQVRGTY: the amyloid nucleation score is 0.353 ± 0.22. LYRLGFEAHRVYKQLKIIGG yielded an amyloid nucleation score of 0.764 ± 0.4. LYRNSMRRDR came in with an amyloid nucleation score of -0.669 ± 0.35. As for LYRQTLLSHL, the figure is -0.231 ± 0.24; as for LYRSSLRFMPTIICETVWMY, “inactive”; as for LYVLTNSGPHCLCVGMMHYN, “inactive”.

On to LYWAFTTISLYLTSTFVSLM, for which the amyloid nucleation score was -1.66 ± 1.1. Turning to LYWYKY, the amyloid nucleation score was -0.414 ± 0.79. As for MALHVQWRVTGSI, the figure is 5.14 ± 0.037; as for MALVSTSSFFDV, “inactive”; as for MAVYTRVVTLCRGKPFS, 1.06 ± 0.35. In turn, MCELGFHNSPFSGTFLLLMF came in with an amyloid nucleation score of 1.64 ± 0.12. In turn, MCNFRSWGALLNKRAHGVGS returned an amyloid nucleation score of 0.307 ± 0.65. With MCQDGCHGFLVTADQPQSGA, the amyloid nucleation score is -0.148 ± 0.42. Under MCSPSQEVITYHSDFWNGQK stands 1.18 ± 0.68.

Turning to MCTELYEDGNKPTTRSDRSA, the amyloid nucleation score was determined as 3.21 ± 0.1. As for MCTGRFFSITSYGCKESSYL, the figure is 1.49 ± 0.26. In the case of MDFVNTIATCNKKREVRFVI, the amyloid nucleation score is -1.1 ± 0.36.

As to MDLRVTVILFSDYEAYFDVT, the amyloid nucleation score amounted to 1.33 ± 0.18. As for MDQNG, the figure is -0.427 ± 0.79. As for MDYTFSLQTMCGVWYCYWGR, the amyloid nucleation score came out at 1.31 ± 0.31. The substance MEFDVLSIFQRGSRAGAK returned an amyloid nucleation score of -1.3 ± 0.54. Take MELMNMV: the amyloid nucleation score is -0.127 ± 0.65.

Consider MELTSN, for which the amyloid nucleation score entry is “inactive”. Take MFCSEMLVYGLMMVLSF: the amyloid nucleation score is -0.05 ± 0.3. As for MFGHHKS, the figure is -0.5 ± 0.63; as for MFLSNDIAFVKNVLNRIRYL, -0.642 ± 0.78.

For the substance MFLYTVTNARFYEWW, the amyloid nucleation score turned out to be 0.102 ± 0.61.

MFNFWWSFYALFKLSWRPGF displayed an amyloid nucleation score of -0.996 ± 0.49. Regarding MFNLSLNEFKPGLNRDCVQ, the amyloid nucleation score is -0.258 ± 0.56. MFSPQLSALMILVSYMHDGW had an amyloid nucleation score of 2.04 ± 0.087. Under MFYASFGVKL stands 0.655 ± 0.65. In the case of MGCICWVDCKPYDFGMTVVM, the amyloid nucleation score is -0.726 ± 0.49. With MGFQVYLGRGLNDFKAE, the amyloid nucleation score amounted to 2.66 ± 0.11. MGLMNCSYSVKKQAAVIRTD returned an amyloid nucleation score of 0.06 ± 0.17.

Consider MGLRCWKIIMWNYSRKLHQC, for which the amyloid nucleation score came out at 0.031 ± 0.45.

Regarding MGLSWLSLLLKCRCQWACKL, the amyloid nucleation score was 0.306 ± 0.65. The substance MGLYLWGFRTTSICGVLMDY registered an amyloid nucleation score of -1.66 ± 0.76. In turn, MGNSYIEVRSLYR registered an amyloid nucleation score of -0.578 ± 0.64. For MGSGSIFT, the amyloid nucleation score was 0.287 ± 0.45. As for MGVKPTPCRVRPPRRPGASA, the figure is 1.68 ± 0.27; as for MGVRY, 1.42 ± 0.38; as for MHDYFLVQ, -0.487 ± 0.42. Regarding MHGFNDAYFLCDVSAQGLV, the amyloid nucleation score is -0.128 ± 0.28. Turning to MIDRE, the amyloid nucleation score is 0.83 ± 0.2.

For the substance MIGSGVW, the amyloid nucleation score was -1.07 ± 0.78.

MIIVTAY registered an amyloid nucleation score of -0.073 ± 0.49. Consider MINFDYYRYHCWCSNQHYTR, for which the amyloid nucleation score came out at 1.19 ± 0.47. Substance MISYYLMSIYS came in with an amyloid nucleation score of 4.58 ± 0.065. In turn, MIYERASSVRISFGMLRFRS came in with an amyloid nucleation score of -1.48 ± 1.1. For MKFVNINGAICSVRHPSVRT, the amyloid nucleation score turned out to be 0.089 ± 0.79.

In turn, MKGALWYSDKAT returned an amyloid nucleation score of 0.102 ± 1.1. MKSNSLSGRCSQFHLES had an amyloid nucleation score of -0.184 ± 1.1.

As for MKVGLLD, the amyloid nucleation score was -0.49 ± 0.76. In the case of MLHSRLAREMHTLVILFFNK, the amyloid nucleation score came to 0.05 ± 0.49. Regarding MLIPRVFISHVDICGYISCS, the amyloid nucleation score worked out at 4.626 ± 0.036.

The substance MLNLVATVLWDWSVDCSWQV had an amyloid nucleation score of 1.5 ± 0.11. In turn, MLRCQFTSTGFGNRLATFSD had an amyloid nucleation score of 3.02 ± 0.15. In turn, MLSQASKT displayed an amyloid nucleation score of -0.84 ± 1.1. Substance MLVLFADRRSMRDLDNTGFV gave an amyloid nucleation score of 0.029 ± 0.79.

The substance MMAIFWGFSVQRRRGSGIDL showed an amyloid nucleation score of 2.74 ± 0.18. Take MMGVCF: the amyloid nucleation score was -0.916 ± 1.1. MMIAWFSRMCFF displayed an amyloid nucleation score of 2.92 ± 0.1. As to MMLNSINLKYLIWLCN, the amyloid nucleation score was determined as 2.73 ± 0.06. Turning to MMLRLSCSSPQSLVRSSS, the amyloid nucleation score is -0.181 ± 0.63. Substance MNELVIIGILMCCTDF returned an amyloid nucleation score of 8.484 ± 0.027.

On to MNQTCIRVDRLELYRYM, for which the amyloid nucleation score result is “inactive”.

MNRYSKIVSQFVLAVDSTYF: the amyloid nucleation score stood at 0.433 ± 0.74. MNVMNQSSFHMV showed an amyloid nucleation score of -0.108 ± 1.1.

MPLLRVVMTLRHKSLFKAEM: the amyloid nucleation score is -0.272 ± 0.44. On to MPPRGKSWSVRTSLWKQIFM, for which the amyloid nucleation score is 3.24 ± 0.11. As for MRAYFYNKRVISYSLISFPV, the figure is -1.45 ± 0.78; as for MRCWFTFVWCVIYY, “inactive”; as for MRGVTLYDYFDGIRIWRPLR, 3.76 ± 0.12.
